Our source for the Km, kcat and kcat/Km values is US20030186329A1, “Use of substrate subtraction libraries to distinguish enzyme specificities” (The Scripps Research Institute, priority 1998, published 2003).

In general, Km refers to the substrate concentration at which the rate is half of its maximum. What is called kcat is the maximal rate divided by the concentration of active sites. Broadly, the kcat/Km is the turnover number divided by the Michaelis constant.

Substrate in the data set: CC(C)[C@H](NC(=O)[C@H](CO)NC(=O)CNC(=O)CNC(=O)[C@@H](NC(=O)[C@@H](NC(=O)[C@H](CCCNC(=N)N)NC(=O)CNC(=O)[C@@H]1CCCN1C(=O)[C@H](CO)NC(=O)[C@H](CCCCN)NC(=O)[C@@H](N)CCCCN)C(C)C)C(C)C)C(=O)N[C@@H](C)C(=O)N[C@@H](Cc1c[nH]cn1)C(=O)O
Briefly: Kinetics of cleavage of synthetic peptides by t-PA (HPLC, Eadie-Hofstee analysis). Format: biochemical. As to conditions: other: hydrolysis of peptide by t-PA. How it is done:
Concentrations of functional t-PA and u-PA were measured by active site titration with 4-methylumbelliferyl p-guanidinobenzoate (Jameson, G., et al., (1973) Biochem. J. 131, 107-117) using a Perkin-Elmer LS 50B Luminescence Fluorometer as previously described (Madison, E. L., et al., (1995) J. Biol. Chem. 270: 7558-7562). In addition, the enzymes were titrated with a standard PAI-1 preparation that had been previously titrated against a trypsin primary standard. Total enzyme concentrations were measured by ELISA.
Individual phage stocks were prepared and digested with no enzyme, t-PA, u-PA, or u-PA in the presence of 1 mM amiloride, a specific inhibitor of u-PA. Kinetic-data were obtained by incubating various concentrations of peptide with a constant enzyme concentration to achieve between 5 and 20% cleavage of the peptide in each reaction. For assays with u-PA, enzyme concentration was either 815 or 635 nM. For assays with t-PA enzyme concentration was 700 nM. […] The buffer used in these assays has been described (Madison, E. L., et al., 1995). Reactions were stopped by addition of triflouroacetic acid to 0.33% or by freezing on dry ice. Cleavage of the 13 and 14 residue peptides was monitored by reverse phase HPLC as described (Madison, E. L., et al., 1995). The 4-6 residue peptides were acylated at their amino termini and amidated at their carboxyl termini. Cleavage of the 4-6 residue peptides was monitored by hydrophilic interaction HPLC chromatography (HILIC) (Alpert, A. J. (1990) J. Chromatog. 499, 177-196.) using a polyhydroxyaspartamine column from PolyLC (Columbia, Md.). Buffer A was 50 mM triethylamine phosphate in 10% acetonitrile and buffer B was 10 mM triethylamine phosphate in 80% acetonitrile. Peptides were eluted by a gradient which was varied from 100% Buffer B to 100% Buffer A during a 13 minute interval. The percent of cleaved peptide was calculated by dividing the area under the product peaks by the total area under substrate and product peaks. […] Errors were determined as described (Taylor, J. R., 1982) An introduction to error analysis. […]

B1: t-PA (Homo sapiens) (protein)
chain: SYQVICRDEKTQMIYQQHQSWLRPVLRSNRVEYCWCNSGRAQCHSVPVKSCSEPRCFNGGTCQQALYFSDFVCQCPEGFAGKCCEIDTRATCYEDQGISYRGTWSTAESGAECTNWNSSALAQKPYSGRRPDAIRLGLGNHNYCRNPDRDSKPWCYVFKAGKYSSEFCSTPACSEGNSDCYFGNGSAYRGTHSLTESGASCLPWNSMILIGKVYTAQNPSAQALGLGKHNYCRNPDGDAKPWCHVLKNRRLTWEYCDVPSCSTCGLRQYSQPQFRIKGGLFADIASHPWQAAIFAKHRRSPGERFLCGGILISSCWILSAAHCFQERFPPHHLTVILGRTYRVVPGEEEQKFEVEKYIVHKEFDDDTYDNDIALLQLKSDSSRCAQESSVVRTVCLPPADLQLPDWTECELSGYGKHEALSPFYSERLKEAHVRLYPSSRCTSQHLLNRTVTDNMLCAGDTRSGGPQANLHDACQGDSGGPLVCLNDGRMTLVGIISWGLGCGQKDVPGVYTKVTNYLDWIRDNMRP
As to B1, the Km worked out at 15 mM, the kcat is 0.0043 s⁻¹ and the kcat/Km was determined as 0.29 M⁻¹ s⁻¹.
